From article PMC9491731 (PLoS Genetics, 2022) come the findings set out here.

The target in this assay is T1, WT CcdB (Controller of Cell Death protein B) (Escherichia coli (F-plasmid), UniProt P62554).
T1 construct: also called CcdB-WT
The assay is described as follows: thermal shift assay (Sypro orange). To be noted: both partners purified.

Regarding KAENQEGMAEVARFIEMNGSFADENRDW [CcdA peptide (45–72)], the binding result is recorded as “binds”.
